Test results as given in publication PMC7888926.
pKd: −log10 of the molar value.

Experiments:
GST-His6-HBD = molecular target: T1, GST-His6-HBD (UniProt O60930); assay: BLI; conditions: EMSA: 30 nM probe, 20 mM Hepes pH 7.0, 100 mM NaCl, 5% glycerol, 10 mM DTT, 0.5 mM EDTA, 5 ug/ml salmon sperm DNA, 25°C 30 min; BLI: 20 mM Hepes-NaOH pH 7.5 …
T1 sequence (O60930 whole entry, looked up): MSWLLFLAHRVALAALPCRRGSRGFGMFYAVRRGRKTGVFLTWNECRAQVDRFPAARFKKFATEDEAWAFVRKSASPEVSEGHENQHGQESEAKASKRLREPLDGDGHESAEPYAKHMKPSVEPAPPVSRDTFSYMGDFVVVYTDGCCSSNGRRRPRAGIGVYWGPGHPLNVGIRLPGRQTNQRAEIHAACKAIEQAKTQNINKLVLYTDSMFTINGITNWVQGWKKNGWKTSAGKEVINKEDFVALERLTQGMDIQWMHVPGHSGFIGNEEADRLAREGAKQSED

GST-His6-2×HBD = GST-His6-2×HBD (UniProt O60930); assay: BLI; conditions: EMSA: 30 nM probe, 20 mM Hepes pH 7.0, 100 mM NaCl, 5% glycerol, 10 mM DTT, 0.5 mM EDTA, 5 ug/ml salmon sperm DNA, 25°C 30 min; BLI: 20 mM Hepes-NaOH pH 7.5 …

In the case of “AGCGTGCCGTGCAACAACATTACAC / GUGUAAUGUUGUUGCACGGCACGCU [biotin DNA-RNA hybrid 25-mer (BLI)]”, the pKd (GST-His6-HBD) was 7.78 and the pKd (GST-His6-2×HBD) was 7.98.
